pIC50, pKd: −log10 of the molar value.
Experiments:
[1] = biological target: HLA-A*01:01; assay: IEDB peptide-MHC binding, purified MHC/competitive/radioactivity; filed as Kd, often an IC50 or EC50 that approximates it; ≥ and ≤ were set here for values at or beyond the usual limits of such assays
[2] = biological target: HLA-A*23:01; assay: as above
[3] = biological target: HLA-A*24:02; assay: as above
[4] = biological target: HLA-A*26:01; assay: as above
[5] = biological target: HLA-A*29:02; assay: as above
[6] = biological target: HLA-A*30:02; assay: as above
[7] = biological target: HLA-A*02:01; assay: IEDB peptide-MHC binding, purified MHC/competitive/fluorescence; ≥ and ≤ were set here for values at or beyond the usual limits of such assays; settings: source organism: Hepatitis C virus genotype 1
[8] = biological target: HLA-A*02:02; assay: IEDB peptide-MHC binding, purified MHC/competitive/radioactivity; filed as Kd, often an IC50 or EC50 that approximates it; ≥ and ≤ were set here for values at or beyond the usual limits of such assays; settings: source organism: Hepatitis C virus (isolate 1)
[9] = biological target: HLA-A*02:03; assay: as above; settings: source organism: Hepatitis C virus (isolate 1)
[10] = biological target: HLA-A*02:06; assay: as above; settings: source organism: Hepatitis C virus (isolate 1)
[11] = biological target: HLA-A*68:02; assay: as above
[12] = biological target: HLA-B*08:01; assay: as above; settings: source organism: Vaccinia virus WR
[13] = biological target: HLA-A*03:01; assay: as above; settings: source organism: Vaccinia virus WR
[14] = biological target: HLA-A*11:01; assay: as above; settings: source organism: Vaccinia virus WR
[15] = biological target: HLA-A*30:01; assay: as above
[16] = biological target: HLA-A*31:01; assay: as above; settings: source organism: Vaccinia virus WR
[17] = biological target: HLA-A*33:01; assay: as above; settings: source organism: Vaccinia virus WR
[18] = biological target: HLA-A*68:01; assay: as above; settings: source organism: Vaccinia virus WR
[19] = source organism: SARS coronavirus Tor2
[20] = source organism: Dengue virus 3 Martinique/1243/1999
[21] = source organism: Lymphocytic choriomeningitis virus (strain Armstrong)

Row | Sequence | pKd [1, 19] | pKd [2, 19] | pKd [3, 19] | pKd [4, 19] | pKd [5, 19] | pKd [6, 19] | other results
1 | LFLAFVVFL | 6.09 | 5.73 | ≤ 4.52 | 6.24 | 5.10 | ≤ 4.46 | 
2 | VFSAVGNICY | 7.22 | 4.81 | 5.15 | 5.89 | 7.55 | 7.86 | 
3 | CINGVCWTV |  |  |  |  |  |  | pIC50 [7]: ≤ 4.30; pKd [8]: 5.47; pKd [9]: 5.19; pKd [10]: 5.36; pKd ([11]; source organism: Hepatitis C virus (isolate 1)): 5.42
4 | ALRSRIREL |  |  |  |  |  |  | pKd [12]: 9.34
5 | TSMSFSCIAI |  |  |  |  |  |  | pKd [11, 20]: 8.91
6 | VMPVHTLSI | ≤ 4.11 | 6.96 | 7.33 | ≤ 4.68 | 6.85 | 5.34 | 
7 | QFIHFYREPV |  |  |  |  |  |  | pKd [1, 21]: ≤ 4.38; pKd [2, 21]: ≤ 4.16; pKd [3, 21]: ≤ 4.15; pKd [4, 21]: ≤ 4.16; pKd [5, 21]: ≤ 4.40; pKd [6, 21]: 5.29
8 | LARRPTPKK |  |  |  |  |  |  | pKd [13]: 6.73; pKd [14]: 6.37; pKd ([15]; source organism: Vaccinia virus Copenhagen): 7.98; pKd [16]: 7.15; pKd [17]: 4.71; pKd [18]: 6.37
9 | TFKTAHAKK |  |  |  |  |  |  | pKd ([15]; source organism: Dengue virus 1 Brazil/97-11/1997): 7.00
10 | ASMAICSAV |  |  |  |  |  |  | pKd ([11]; source organism: Dengue virus 4 Philippines/H241/1956): 7.20
11 | APALQEAYY | ≤ 3.96 | ≤ 4.11 | ≤ 4.11 | ≤ 4.18 | 5.70 | 6.44 | 
12 | MWLGARYLEF |  |  |  |  |  |  | pKd [2, 20]: 8.45; pKd [3, 20]: 7.01
